Earlier results as cited in publication PMC9696605.

Target: Fyn SH3 (Homo sapiens) (UniProt P06241)
Sequence (P06241 79-146): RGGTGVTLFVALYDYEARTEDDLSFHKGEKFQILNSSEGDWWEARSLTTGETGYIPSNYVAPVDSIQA

Chain of MBP (P02686 whole entry): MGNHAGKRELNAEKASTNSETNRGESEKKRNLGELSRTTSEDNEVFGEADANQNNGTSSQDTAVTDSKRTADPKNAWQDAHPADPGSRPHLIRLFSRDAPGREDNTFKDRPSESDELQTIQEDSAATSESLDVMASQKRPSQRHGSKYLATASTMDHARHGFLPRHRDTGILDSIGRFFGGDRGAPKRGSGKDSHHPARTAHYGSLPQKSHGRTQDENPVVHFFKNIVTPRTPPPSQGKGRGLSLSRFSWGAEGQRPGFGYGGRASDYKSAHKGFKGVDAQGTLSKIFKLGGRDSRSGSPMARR

Substance: MBP (from UniProt P02686)
- Kd: 6 µM
